Experimental data as given in article PMC9352930, “Structure-Guided Engineering of a Complement Component C3-Binding Nanobody Improves Specificity and Adds Cofactor Activity” (Frontiers in Immunology, 2022).
Each block holds one binder with its values, some of them ahead of it.

Tests used:
Conditions in all cases: both partners purified
[1] = molecular target: T1, C3b (proteolytic fragment of complement component C3) (human, UniProt P01024); assay: BLI; single concentration: nanobody variant held on anti-penta his (His1K) biosensors, transferred into 50 nM C3 or C3b for 180 s; 20 mM HEPES pH 7.5, 150 mM NaCl, 30°C
T1 construct: complement component C3, human, beta chain; complement component C3, human, alpha' chain (alpha chain after release of C3a); also called human C3b; source: generated from native plasma C3 by trypsin cleavage, purified

[2] = molecular target: T1, C3b (proteolytic fragment of complement …); assay: SPR; biotinylated C-terminally avi-tagged nanobody on streptavidin (CM500M chip); native C3, C3b and C3MA injected at 0.4-200 nM; 20 mM HEPES pH 7.5, 150 mM NaCl, 0.05% Tween 20, 25°C; 1:1 model; KD for native C3 called apparent
[3] = molecular target: T1, C3b (proteolytic fragment of complement …); assay: SEC; C3 or C3b mixed with a two-fold molar excess of nanobody, 5 min on ice; Superdex 200 increase, 20 mM HEPES pH 7.5, 150 mM NaCl; peak fractions on SDS-PAGE
[4] = molecular target: T1, C3b (proteolytic fragment of complement …); assay: BLI; kinetics: EWE, EWEµH or EWEnH held on anti-penta his (His1K) biosensors, dilution series of C3b or iC3b; 20 mM HEPES pH 7.5, 150 mM NaCl, 30°C; 1:1 model
[5] = molecular target: T2, iC3b (human); assay: as above
T2 construct: complement component C3, human, beta chain; it says only that FI degrades C3b to iC3b; copies: + +
T2 sequence (chain, as listed by the source, chain 1 of 3): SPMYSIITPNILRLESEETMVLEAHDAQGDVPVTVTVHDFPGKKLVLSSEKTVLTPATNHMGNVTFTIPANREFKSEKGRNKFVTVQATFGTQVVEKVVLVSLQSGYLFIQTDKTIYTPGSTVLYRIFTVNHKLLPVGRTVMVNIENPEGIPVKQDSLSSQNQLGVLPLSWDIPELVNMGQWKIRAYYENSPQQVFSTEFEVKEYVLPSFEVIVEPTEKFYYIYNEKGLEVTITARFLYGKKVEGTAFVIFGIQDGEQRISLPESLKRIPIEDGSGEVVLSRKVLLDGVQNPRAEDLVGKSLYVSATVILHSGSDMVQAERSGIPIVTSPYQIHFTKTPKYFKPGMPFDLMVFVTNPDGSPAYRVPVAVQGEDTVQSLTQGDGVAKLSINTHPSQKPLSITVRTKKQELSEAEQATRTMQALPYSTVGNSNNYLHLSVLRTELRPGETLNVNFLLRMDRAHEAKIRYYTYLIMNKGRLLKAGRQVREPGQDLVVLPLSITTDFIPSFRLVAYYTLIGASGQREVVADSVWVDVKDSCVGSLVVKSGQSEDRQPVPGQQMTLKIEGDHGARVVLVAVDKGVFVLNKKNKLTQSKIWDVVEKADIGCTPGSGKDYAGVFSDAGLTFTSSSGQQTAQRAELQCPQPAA
T2 sequence (chain, as listed by the source, chain 2 of 3): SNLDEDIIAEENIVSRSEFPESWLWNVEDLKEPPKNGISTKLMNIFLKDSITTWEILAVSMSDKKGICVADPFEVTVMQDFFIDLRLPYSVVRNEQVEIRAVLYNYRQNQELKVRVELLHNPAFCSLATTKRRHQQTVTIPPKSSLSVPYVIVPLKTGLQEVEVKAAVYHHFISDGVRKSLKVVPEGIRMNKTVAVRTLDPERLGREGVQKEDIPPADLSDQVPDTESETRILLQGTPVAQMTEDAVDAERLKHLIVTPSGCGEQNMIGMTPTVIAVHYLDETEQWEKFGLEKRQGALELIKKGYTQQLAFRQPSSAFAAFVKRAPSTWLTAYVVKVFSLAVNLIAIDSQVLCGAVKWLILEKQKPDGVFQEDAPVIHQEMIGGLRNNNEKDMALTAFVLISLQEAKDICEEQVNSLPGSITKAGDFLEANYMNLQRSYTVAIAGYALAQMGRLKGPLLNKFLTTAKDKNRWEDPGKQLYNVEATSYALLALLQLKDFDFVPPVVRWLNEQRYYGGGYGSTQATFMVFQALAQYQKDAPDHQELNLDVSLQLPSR
T2 sequence (chain, as listed by the source, chain 3 of 3): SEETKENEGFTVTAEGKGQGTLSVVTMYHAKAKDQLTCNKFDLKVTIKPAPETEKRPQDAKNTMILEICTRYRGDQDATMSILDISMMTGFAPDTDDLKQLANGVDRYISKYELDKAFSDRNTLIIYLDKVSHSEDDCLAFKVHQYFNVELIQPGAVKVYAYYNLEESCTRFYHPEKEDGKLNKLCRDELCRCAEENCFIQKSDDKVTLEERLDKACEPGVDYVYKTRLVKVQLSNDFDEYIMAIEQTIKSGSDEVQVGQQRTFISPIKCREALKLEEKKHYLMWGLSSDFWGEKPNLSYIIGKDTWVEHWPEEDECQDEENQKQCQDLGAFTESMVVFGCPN

B1: hC3Nb1 ΔQ1 (VHH)
VHH: VQLVETGGGLVQAGGSLRLSCAASGSIFSLNAMGWFRQAPGKEREFVATINRSGGRTYYADSVKGRFTISRDNGKNMVYLQMHSLKPEDTAIYYCAAGTGWSPQTDNEYNYWGQGTQVTVSS
notes: hC3Nb1 nanobody with the N-terminal glutamine deleted; parent as the nanobody piece of m6; The printed calculated mass (14068.6) fits a protein without the N-terminal methionine (my reckoning against 14327.9 for m6); source: expressed in bacteria, purified
binding result [1]: binds

B2: avi-tagged, biotinylated EWE nanobody (VHH)
VHH: QVQLVETGGGLVQAGGSLRLSCAASGSIFSINAMGWFRQAPGKEREFVATINRSGGRTYYADSVKGRFTISRDNGKNMVYLQMHSLKPEDTAIYYCAAGTGWSPQTDNEYNYWGQGTQVTVSS
notes: hC3Nb1 nanobody; as the nanobody piece of m6; also called avi-tagged version of EWE; source: purified similarly to EWE (bacteria; HisTrap, Source 15S, SEC) and biotinylated; not shown: Avi tag, C-terminal, kept
Kd [2]: 2.2 nM

B5: EWE-hC3Nb1 nanobody, bacterially expressed (VHH)
VHH: QVQLVETGGGLVQAGGSLRLSCAASGSIFSINAMGWFRQAPGKEREFVATINRSGGRTYYADSVKGRFTISRDNGKNMVYLQMHSLKPEDTAIYYCAAGTGWSPQTDNEYNYWGQGTQVTVSS
notes: hC3Nb1 nanobody, beginning with its N-terminal glutamine (Gln4 of EWE); as the nanobody piece of m6; also called EWE nanobody; source: LOBSTR cells (bacteria), purified (HisTrap, Source 15S, SEC); not shown: 6xHis, C-terminal, kept
Kd [4]: 3 nM
Kd [5]: 3.6 nM

Further lines, results first:

binding result [1]: binds
B3: hC3Nb1 Q1N (VHH)
VHH: NVQLVETGGGLVQAGGSLRLSCAASGSIFSLNAMGWFRQAPGKEREFVATINRSGGRTYYADSVKGRFTISRDNGKNMVYLQMHSLKPEDTAIYYCAAGTGWSPQTDNEYNYWGQGTQVTVSS
notes: hC3Nb1 nanobody with the N-terminal glutamine mutated to asparagine; parent as the nanobody piece of m6; The printed calculated mass (14182.7) fits a protein without the N-terminal methionine (my reckoning against 14327.9 for m6); source: expressed in bacteria, purified

binding result [3]: binds
B4: hC3Nb1 nanobody, bacterially expressed (VHH)
VHH: QVQLVETGGGLVQAGGSLRLSCAASGSIFSLNAMGWFRQAPGKEREFVATINRSGGRTYYADSVKGRFTISRDNGKNMVYLQMHSLKPEDTAIYYCAAGTGWSPQTDNEYNYWGQGTQVTVSS
notes: N-terminal methionine, retained according to mass spectrometry; hC3Nb1 nanobody; in the PDB entries of its complexes with C3b (6EHG) and C3 (6RU5); pET-22b(+) plasmid; Held on anti-penta-His sensors in BLI; also called parental hC3Nb1; hC3bNb1; source: LOBSTR cells (bacteria), purified (HisTrap, Source 15S, SEC)

binding result [1]: binds
B6: hC3Nb1 nanobody, mammalian expressed (VHH)
VHH: QVQLVETGGGLVQAGGSLRLSCAASGSIFSLNAMGWFRQAPGKEREFVATINRSGGRTYYADSVKGRFTISRDNGKNMVYLQMHSLKPEDTAIYYCAAGTGWSPQTDNEYNYWGQGTQVTVSS
notes: hC3Nb1 nanobody without the N-terminal methionine; in the PDB entries 6EHG and 6RU5; pcDNA 3.1 vector; The calculated mass differs from that of the bacterial construct by more than a methionine, so tag or ends may differ; source: HEK293, transiently transfected, purified from conditioned media (HisTrap excel, ion exchange, SEC)
